Measurements from patent US20140087995A1 (published 2014).
Numbered stars: 1 amine (or outer) side, 2 acyl side, 3 side chain; on linkers, the order of the positions; unused ones are H or OH. Bridge positions count the residues as written; N and C are the ends. Side chains are listed from the residue outwards. Ends that are not written are not given here. * marks the point of attachment. C20 diacid = O=C(O)CCCCCCCCCCCCCCCCCCC(=O)*; γGlu = O=C(O)[C@H](CCC(=O)[*:2])N[*:1]; AEEA = NCCOCCOCC(=O)O

T1: human calcitonin receptor (human, UniProt P30988 25-474)
T1 sequence (looked up): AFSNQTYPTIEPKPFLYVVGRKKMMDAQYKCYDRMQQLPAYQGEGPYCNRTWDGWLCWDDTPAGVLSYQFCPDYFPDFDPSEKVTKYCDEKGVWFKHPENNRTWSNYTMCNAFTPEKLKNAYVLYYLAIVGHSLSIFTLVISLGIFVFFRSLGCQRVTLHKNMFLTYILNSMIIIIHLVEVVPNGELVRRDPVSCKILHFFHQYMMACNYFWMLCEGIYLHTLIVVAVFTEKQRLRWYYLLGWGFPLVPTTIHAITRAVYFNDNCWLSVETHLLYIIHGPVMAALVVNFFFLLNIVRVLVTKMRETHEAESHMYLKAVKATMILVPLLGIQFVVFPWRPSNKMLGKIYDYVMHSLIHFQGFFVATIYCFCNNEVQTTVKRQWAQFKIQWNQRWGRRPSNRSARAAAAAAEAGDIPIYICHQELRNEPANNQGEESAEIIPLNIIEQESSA

T2: human amylin receptor (amylin 3(a) receptor: human calcitonin receptor plus RAMP-3) (human, UniProt P30988 25-474; O60896 24-148, limits assumed)
T2 sequence (looked up) 1: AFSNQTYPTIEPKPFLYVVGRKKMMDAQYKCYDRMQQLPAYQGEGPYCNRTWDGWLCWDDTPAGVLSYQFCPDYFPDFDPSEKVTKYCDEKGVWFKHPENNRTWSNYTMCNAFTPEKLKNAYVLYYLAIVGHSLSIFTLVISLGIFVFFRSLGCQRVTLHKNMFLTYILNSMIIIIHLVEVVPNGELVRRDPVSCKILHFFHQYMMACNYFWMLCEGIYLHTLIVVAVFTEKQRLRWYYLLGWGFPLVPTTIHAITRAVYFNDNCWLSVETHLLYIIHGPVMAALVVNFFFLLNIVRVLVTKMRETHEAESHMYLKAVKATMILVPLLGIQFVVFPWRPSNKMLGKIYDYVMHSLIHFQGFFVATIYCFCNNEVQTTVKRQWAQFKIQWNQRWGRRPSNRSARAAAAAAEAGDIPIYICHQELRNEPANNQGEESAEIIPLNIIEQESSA
T2 sequence (looked up) 2: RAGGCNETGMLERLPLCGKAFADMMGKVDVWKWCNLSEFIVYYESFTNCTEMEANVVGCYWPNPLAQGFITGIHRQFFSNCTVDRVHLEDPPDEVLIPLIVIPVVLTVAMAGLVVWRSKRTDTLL


What was measured:
[1] = target: T1, human calcitonin receptor; test: cell-based or functional assay
[2] = target: T2, human amylin receptor (amylin 3(a) …); test: cell-based or functional assay

hCTR funct. EC50 [1] | Ratio hCT/hAmylin funct. [2] | hAmylin-R funct. EC50 [2] | Binder
1.32 nM | 6 ratio | 0.222 nM | {C20 diacid-γGlu}-GRCNTATCATQRLANFLRHSSPNFGAIPSSTNVGSHTY-NH2 (disulfide 3-8; SMILES CC[C@H](C)[C@H](NC(=O)[C@H](C)NC(=O)CNC(=O)[C@H](Cc1ccccc1)NC(=O)[C@H](CC(N)=O)NC(=O)[C@@H]1CCCN1C(=O)[C@H](CO)NC(=O)[C@H](CO)NC(=O)[C@H](Cc1c[nH]cn1)NC(=O)[C@H](CCCNC(=N)N)NC(=O)[C@H](CC(C)C)NC(=O)[C@H](Cc1ccccc1)NC(=O)[C@H](CC(N)=O)NC(=O)[C@H](C)NC(=O)[C@H](CC(C)C)NC(=O)[C@H](CCCNC(=N)N)NC(=O)[C@H](CCC(N)=O)NC(=O)[C@@H](NC(=O)[C@H](C)NC(=O)[C@@H]1CSSC[C@H](NC(=O)[C@H](CCCNC(=N)N)NC(=O)CNC(=O)CC[C@H](NC(=O)CCCCCCCCCCCCCCCCCCC(=O)O)C(=O)O)C(=O)N[C@@H](CC(N)=O)C(=O)N[C@@H]([C@@H](C)O)C(=O)N[C@@H](C)C(=O)N[C@@H]([C@@H](C)O)C(=O)N1)[C@@H](C)O)C(=O)N1CCC[C@H]1C(=O)N[C@@H](CO)C(=O)N[C@@H](CO)C(=O)N[C@H](C(=O)N[C@@H](CC(N)=O)C(=O)N[C@H](C(=O)NCC(=O)N[C@@H](CO)C(=O)N[C@@H](Cc1c[nH]cn1)C(=O)N[C@H](C(=O)N[C@@H](Cc1ccc(O)cc1)C(N)=O)[C@@H](C)O)C(C)C)[C@@H](C)O, Synthetic acylated analogue of human amylin, extended by Gly at the N-terminus; also called compound 47)
0.899 nM | 10.2 ratio | 0.088 nM | {C20 diacid-γGlu}-GRCNTATCATQRLANFLRHSSPNFGAIPSSTNVGSNTY-NH2 (disulfide 3-8; SMILES CC[C@H](C)[C@H](NC(=O)[C@H](C)NC(=O)CNC(=O)[C@H](Cc1ccccc1)NC(=O)[C@H](CC(N)=O)NC(=O)[C@@H]1CCCN1C(=O)[C@H](CO)NC(=O)[C@H](CO)NC(=O)[C@H](Cc1c[nH]cn1)NC(=O)[C@H](CCCNC(=N)N)NC(=O)[C@H](CC(C)C)NC(=O)[C@H](Cc1ccccc1)NC(=O)[C@H](CC(N)=O)NC(=O)[C@H](C)NC(=O)[C@H](CC(C)C)NC(=O)[C@H](CCCNC(=N)N)NC(=O)[C@H](CCC(N)=O)NC(=O)[C@@H](NC(=O)[C@H](C)NC(=O)[C@@H]1CSSC[C@H](NC(=O)[C@H](CCCNC(=N)N)NC(=O)CNC(=O)CC[C@H](NC(=O)CCCCCCCCCCCCCCCCCCC(=O)O)C(=O)O)C(=O)N[C@@H](CC(N)=O)C(=O)N[C@@H]([C@@H](C)O)C(=O)N[C@@H](C)C(=O)N[C@@H]([C@@H](C)O)C(=O)N1)[C@@H](C)O)C(=O)N1CCC[C@H]1C(=O)N[C@@H](CO)C(=O)N[C@@H](CO)C(=O)N[C@H](C(=O)N[C@@H](CC(N)=O)C(=O)N[C@H](C(=O)NCC(=O)N[C@@H](CO)C(=O)N[C@@H](CC(N)=O)C(=O)N[C@H](C(=O)N[C@@H](Cc1ccc(O)cc1)C(N)=O)[C@@H](C)O)C(C)C)[C@@H](C)O, Synthetic acylated analogue of human amylin, extended by Gly at the N-terminus; also called compound 46) [N^-1-[(4S)-4-carboxy-4-(19-carboxynonadecanoylamino)butanoyl]-Gly[Arg1,Arg17,Pro21,Pro27]-h-amylin]
10.1 nM | 17 ratio | 0.594 nM | K([AEEA-γGlu-C20 diacid])RCNTATCATQRLANFLRHSSPNFGAIPSSTNVGSHTY-NH2 (disulfide 3-8; N-terminus assumed; SMILES CC[C@H](C)[C@H](NC(=O)[C@H](C)NC(=O)CNC(=O)[C@H](Cc1ccccc1)NC(=O)[C@H](CC(N)=O)NC(=O)[C@@H]1CCCN1C(=O)[C@H](CO)NC(=O)[C@H](CO)NC(=O)[C@H](Cc1c[nH]cn1)NC(=O)[C@H](CCCNC(=N)N)NC(=O)[C@H](CC(C)C)NC(=O)[C@H](Cc1ccccc1)NC(=O)[C@H](CC(N)=O)NC(=O)[C@H](C)NC(=O)[C@H](CC(C)C)NC(=O)[C@H](CCCNC(=N)N)NC(=O)[C@H](CCC(N)=O)NC(=O)[C@@H](NC(=O)[C@H](C)NC(=O)[C@@H]1CSSC[C@H](NC(=O)[C@H](CCCNC(=N)N)NC(=O)[C@@H](N)CCCCNC(=O)COCCOCCNC(=O)CC[C@H](NC(=O)CCCCCCCCCCCCCCCCCCC(=O)O)C(=O)O)C(=O)N[C@@H](CC(N)=O)C(=O)N[C@@H]([C@@H](C)O)C(=O)N[C@@H](C)C(=O)N[C@@H]([C@@H](C)O)C(=O)N1)[C@@H](C)O)C(=O)N1CCC[C@H]1C(=O)N[C@@H](CO)C(=O)N[C@@H](CO)C(=O)N[C@H](C(=O)N[C@@H](CC(N)=O)C(=O)N[C@H](C(=O)NCC(=O)N[C@@H](CO)C(=O)N[C@@H](Cc1c[nH]cn1)C(=O)N[C@H](C(=O)N[C@@H](Cc1ccc(O)cc1)C(N)=O)[C@@H](C)O)C(C)C)[C@@H](C)O, Synthetic acylated analogue of human amylin, extended by Lys at the N-terminus; also called compound 45)
